What was measured:
Conditions in all cases: 25 mM Tris-HCl pH 7.5, 2 mM MgCl2, 100 mM KCl (FP, 21 C) or 100-400 mM KCl (BLI, IgG on Protein A, 25 C)
J2 IgG [1] = test: fluorescence polarization
J2 IgG [2] = test: BLI
J2 IgG LC Y31F = test: BLI
J2 IgG HC Y50F = test: BLI
J2 IgG HC Y52F = test: BLI
J2 IgG LC Y38F = test: BLI
J2 IgG HC Y54F = test: BLI
J2 IgG HC A30P = test: BLI
J2 IgG HC Y54A = test: BLI
J2 IgG LC Y31A = test: BLI
J2 IgG [3] = test: competition FP

“GGCAAGGGUAUCAUGGCGGACGACCGGGGUUCGAACCCCGGAUCCGGCCGUCCGCCGUGAUCCAUGCGGUUACCGCCCGCGUGUCGAACCCAGGUGUGCC [VA-I RNA]” was tested, and the Kd (J2 IgG [1]) was 32 nM.

Sequence “GUUGUAAAGAAGGU / ACCUUCUUUACAAC [14-bp dsRNA]” has a Kd (J2 IgG [2]) of 2100 nM.

For “GUUGUAAAGAAGGUCAAUAU / AUAUUGACCUUCUUUACAAC [20-bp dsRNA]”, the Kd (J2 IgG LC Y31F) was 360 nM, the Kd (J2 IgG HC Y50F) was 430 nM and the Kd (J2 IgG HC Y52F) was 220 nM. It also gave a Kd (J2 IgG LC Y38F) of 150 nM, a Kd (J2 IgG [2]) of 120 nM and a Kd (J2 IgG HC Y54F) of 710 nM. It also gave a Kd (J2 IgG HC A30P) of 120 nM, a Kd (J2 IgG HC Y54A) of 300 nM and a Kd (J2 IgG LC Y31A) of 940 nM.

“GUUGUAAAGAAGGUCAAUAUUGUACCAAAC / GUUUGGUACAAUAUUGACCUUCUUUACAAC [30-bp dsRNA]” gave a Kd (J2 IgG [2]) of 12 nM.

In the case of “GUUGUAAAGAAGGUCAAUAUUGUACCAAACUUGAUGGAAA / UUUCCAUCAAGUUUGGUACAAUAUUGACCUUCUUUACAAC [40-bp dsRNA]”, the Kd (J2 IgG [2]) is reported as 80 nM.

In the case of “GUUGUAAAGAAGGUCAAUAUUGUACCAAACUUGAUGGAAAAGAACAACGU / ACGUUGUUCUUUUCCAUCAAGUUUGGUACAAUAUUGACCUUCUUUACAAC [50-bp dsRNA]”, the IC50 (J2 IgG [3]) is reported as 17 nM and the Kd (J2 IgG [2]) is reported as 22 nM.
